This data set in a line: label from the status in PepcDB records.
For the sequence “MWRYRSPEMPLTESFLDLMLIPIIGFGLAVILLIGFFLLYQEVGIFKNLKFLVIRKNNPFFILALFCLITGLALGLVGYWGILEPKLGAADLQALRRNLIILSLLLFGVTFRQYLFDLIKPVTTMAIWRKIGTFNYKNRIAILTYVLLGLIALAWMAPMASTKIIFSINDHTSHIGYIVQGRMALEEGQFPLRVAPLENFGFRYPGFQFYSQLPYFFGAIIYKFLTPTNPYTAYKILLWSALWLGGIFIYRVGFFFTRSQIAAILGGVTYMSAPYFLNNVHARGAFTEAIAQGILAIVLFYAIQTFYYPHYRHLILGALAWCALGLTHIITFVYTTIFIALLGAIFLVKNKPNHWQKGITYISLSYIWAWLLALYFLAPVALESGSLAIRRQIQAINPFNTTDITPIANLLAPNSLPHQPTELGIAPTYGFHPAVGWILLAGFGTVIYFVFAGKSLPRRLWRSQPWLIPLLSVFILALFLTWSPVNIWNLLPRQLWVTQFTFRFLTHVMWSGALLTTLAIILIFRERLRSRHLILGILIIVIASRPWLPIPRGTVTVEELLQDPLFRYSGALDYLYRLPNKAVPVNTKAQSAVEKIYGKAELQLLHPDWIPGYLSWDVFINGPLPIDVDIPYPAWPETEKPTLVLQGRVPMDKIKSQANLIVFVDQQPLTSIPLTQEELKVKVPFTDVKFAGNAFELKFIVEGETTDGNPLYIRMNHLYFDDFSAANTLLPVHATKEMCNQKGVVTNCPVEMPAEAGTVQLPILYYPAMQQVVVDNQPVKGFFTNYRDFNLLSLNLSPGKHQIQVKFTGLIWANFISLLAWLTLIITAIALKFYPRKPEQTIFK”, the protein production entry was “failed”.

With “MWTDAGGQVHEAASGDVRIASLVPSITELLFDLGLADQLVARTGFCIHPEPAVRAVAKVGGTKDVKLDRLRALAPTHVVVNIDENRRETVDEIRTFVPHVIVTHPCAPEDNLALYRLLGGIFGRRPQAEALVGQLRGELDAIQAQTWPARRVLYAIWQDPWMTVSRATYISRMLALVNWATWPDDADTSDTPAACVDGDCSRPNAPGERYPTFRWSDALVRELDAVLLSTEPYRFTEDHADALERQIGKPVLLVDGEMLSWYGSRAVAGARYLRSLAQGFLEHHHHHH”, the protein production result is reported as “not failed”.

“MWTDSREALSDLQLGECERVLDVGCGTGELTRVLREETDGTVVGLDADTDLLAAAGDPTVCGDATQLPFDDDSFDLVVCQALLINLPDPEVAVREFARVATDRVAAIEPNNAAVTVESTVDAEPMLARRARRLFLDGVRTDVTLGSDAADVFSDAELTVVSTTQYDQEQQIEPPYDDAAMQAARRKATGTGLAHDRETILNGEATPAEYDALRERWRSMGRDVVEQMQDEAYERHETVPFFVTVGEIP”: the protein production entry is listed as “failed”.

Turning to “MWVDGMAKVVEVGRICVKTRGREAGRKCVIVDIIDENFVLVTGPKSLTGVRRRRVNIDHIEILDKKVDIQKGASDEEVLKALEEAGLADFMREPVRIARITPFTLLEHHHHHH”, the protein production result was “not failed”.

For “MWVRVPPPAPFSIFLSPGDDIVKRRKSTRTSSFGVKGRESHDSSPFYSRAIYSNFSLPKPSEEDLIENPLPENLLDKVIEGDAREVLKKIPDCSIHLMVTSPPYNVGKEYDEDMTLDEYLEFIEEIMKEVYRVLVWGGRACFNVANLGRKPYIPLHAYLIHLFEKIGFLIRGEIIWDKGEAVSGSSTAWGSWMSPVNPVLRDQHEYIIVMSKGDLKRRKPSDREAKSTITREEFLEFTRSVWKFPPESAKRVGHPAPFPEELPYRCIQLYTFKGDVVLDPFAGVGTTCVAAVKTGRHFVGIEINPEYVKKAEERVKDILSKPTLFEDHC”, the protein production entry is “failed”.

Consider “MYAIAEDTLPARVLKELLLYRRRYPEHRQSASEADEIRRIEQVQLPRIAAFIEAGEPIEFVLPAFPAKSPNPGKVLDSRPDMAERLSLSFLNHLCQRIQLFYAPGAKITVCSDGRVFGDLVRIGDAHISAYQDALRLMIEEIGATHIGVFNLEDVRAFEAQRDNHEQLRQLLIGGYAEPLESIRETLLASEEGLLLYRAITRFLYEDGLTPDYQGSKTALQRDAKERAYGVIQRSWAWGALLADQFPRAIRLSIHPQPADSLKFGIHMMPTRDDWLTPWHGVAVNTEDRFVLMKRSEVLELGGELVQINGQPSHYRLPARAARRAAVALEHHHHHH”, for which the protein production result is on record as “failed”.

For “MYALIHHGRRLVQLQKLSNFRVSVQNGSALSNSFSFASVADATLIDSLKGNNFTVSYLVDSLGLTTKLAESISKKVSFEERRNPDSVLSLLTSYGFTKSQISSIITIYPRLLALDAEKSIAPKLQSLQSRGASSSELTQIVSTVPKILGKRGHKSITVYYDFVKDIIEADKSSSYEKLCHSFPQGNKKNKIRNISVLRELGVAQRLLFPLLISDGQPVCGKERFEESLKKVVEMGFDPETTKFVEALRVIYRMSDKTIEEKVNVYKRLGFGVADVWAIFKKWPSFLSYSEKKITHTFETLKSCGLLKHEVLLLLKKHPKCICSSEQKIVNSIETFLGLGFSRDEFAMMVKRYPQCIDYTAETVKKKTEFIVKNMNWPLEALVSIPQVFGYSLEKRTVPRCNVIKTLISKGLMKDGSEAPPMSSVLTSTDQAFLRRYVMKHDKLAPELMAIFTGENGK”, the protein production result is on record as “failed”.

Regarding “MYCDHFGFSEHPFALTPNPAFLFLSSRHQEAFAHLLYGIDTRAGFIELSGEVGTGKTTVIRTFLNQLDPETHRTALVFNPTVSPLGLLQGIIREFGLPGTSTEKSELLETLNRFLLDENRAGHTVVLVIDEAQNLSPEVLEQIRLISNLETERDKLIQIVLVGQPELRHLLARQELRQLDQRITVRYHLEPMGLDDTKNYIRHRIRIAAGGREPVIFSAGAVKKIFGFSGGLPRLINAACDRALLLAYTTEAREVSPAMAAAAIADVATEARPPSPSRRFAVAAALILVAALGAGTFAVTRKGGESLPSASPPPTEPAASGEQPLKRTAALAGLAAVPEKDNLSAAVNTILRSWQAPPVASSPSPADLRSLARERGLTVTELSGTLNDLARLDTPALLHITLPQGGKRLVALTSLDKGHIGIDPPIAGHSTLTGGELSTLWSGRASVIWKNFHGIPSRLKPGGRSKAVGQLQELLKGAGYYAGRISGTYDTVTQEAIRSFQTAEGLDADGRTGEKTLLLLYRRAGGFFPPGLTQGKTAARTEAGDRSRGKVAQTRSNGEQSRLEHHHHHH”, the protein production result is listed as “failed”.

For “MYDCSHGAGSSQSPAAEPGPTPRRRHTIHRLAHNDPVNDLDFLLTPEGRALLDEVRDTDPVRELAVATRLRRTHPAELVSAALGQARLRQRAVAKFGAEDAGRMFFTPNGVEQSTRASVAAYRAGRFAALGVASVADLCCGIGGDAIALARAGIRVLAVDRDPVTAAAARANADALGLAGLIEVREADVTEVDTEAYDAVFVDPARRGGRGRIFDPEAYSPPLSWAVRAARTASRAAALKVAPGIPHEAVPEDAEAEWISDGGDVKEAVLWFGAGAAPGAVRATLLPGPRTLPGTGLPDPEVRTPGRYLYEPDGAVIRAHLVAEVAAQVGGGLLDATIAYVTADELLPTPYATAYEITDRMPFNVKKLKALLRERGVGTLTVKKRGSAVEPEELRRKVKPQGPNSATVFLTRVAGAPTMLVGHPAR”, the protein production result is on record as “failed”.

With “MYEAGLAEGESAYGHGGYISVPELPAGVAVRNSRRPDIIQESSYLRILAPAGGWLAAATLEKLADCAETYGRGLVHLTSGGTIEIYTGREQMLPLVRELNSGGLDVGSTGDDLRCLTACCGPVRCEHALVDAPALATYLGQRFIDDQQYPGYPQKVKSAVAGCPNDCIRAMMQKDHSFIGVYRDWPMVDGEMLAAWREKGGDLNGLLAACPAGALTLVGDTLEVDKERCWRCMACINYCPAIRPGRERGVAWVAGGKYGHRGPQGPMVGFVLVPFIPVADDDYTAVGDIFGAFLEFWADNAKKKERVGDFIARVGPLKILRELGLEAQPQILLSPKRNVY”, the protein production result was “failed”.

As to “MYEPGTEQINCNGRLIELPTLEVVRPAPKMPSDANIDWLLHIYFTRREFTRCRRLIERELNRHLNPEYLYFVQGLIDREEGNHIEALRHLQKSAELNPRNIETYKEIGRTLYIMGRFSQALGVFREAEQRSSRQDHEIYHYLGELLYRAATTQSQKDVASQQQDEARTYFELAVQSGRKLESYVRLAELYRKDKQYQKAIEILENCLHLTPENSEVLIEISVLYLKINETQKAHDRLAEVVSIERKCSPKGLLAFGAILQSRNDIDGALSKYSQIANAEPEIAELWNNIGLCFFKKQKFIVAISSLRKSVWLSPLNYNALYNLSLIYIASEQYASAFHTLAAAINLRKDNAECYMLLGLCLRKLDDMENAFVALERASSMATGQQGAGRNPLVVLNFALFCYETGRLALSTEQYNRFMSQAQDLLLPTEYKFQATKLKSLLRISNQGNGILLDSADMGESDLGHNRATELLPDELPLEVNAVVSQN”, the protein production entry is on record as “failed”.

Consider “MYESANVSDDADRTAFRRAEKKYKLYYEQDSKFSRKKKLPKPIDLSELLDFNLISQNFNNDGVLPDGIRVSKVDSSPVFCIDNRPGFYFIPDALSLKEQCKWIKESLTSFPQPPNRTNHNAIYGPIDDLFDSAKENKVLVQDDLTNNKWKFYEEVDIEKATRSSCKSVSASVLLRKLRWSTLGLQFDWSKRNYDVSLPHNNIPDALCQLAKTHAAIAMPDGEEFRPEGAIVNYFGIGDTLGGHLDDMEADWSKPIVSMSLGCKAIFLLGGKSKDDPPHAMYLRSGDVVLMAGEARECFHGIPRIFTGEENADIGALESELSHESGHFFAEYIKTSRININIRQVF”, for which the protein production result is on record as “not failed”.

“MYFTEFLTVALIHLLAVASPGPDFAVVVRESVTHGRRAGTWTALGVGCAIFLHVGYSLLGIGLIVSQSIVLFNALKWLAAAYLLYIGYKALRAQPAKPAADDLHKEAGVRTARGAFTSGFVTNGLNPKATLFFLSLFTVVINPHTPLAIQAGYGVYLAVATAVWFCLVAMLFSQQRVRAGFARMGHWFDRTMGAVLIAIGVKLAFTEMH”: the protein production entry was “failed”.

Turning to “MYGEGDFYTIKSKRDYEFYLEADRLALGKNCKKPRLIGDDIWKFQRLLRQAEYYSNCQNSLLHKLYLKYILFRFHRMSIRLGFSIPINVFGPGLCIAHRGTIVVNKGARVGENCRIHACTNIGSGRDNIFLAPKIGNGVYIGPGAKIFGSVEIADNIAIGANSVVNRSFYERGISIAGVPAKKISNKGSDGMVIAATKTVSVPVSQETILEHHHHHH”, the protein production entry is recorded as “not failed”.

Regarding “MYGIQTSASLPLTRPQALETQAAAPQSDAPDASAGQTRAAPQGSAAPALAAARAKADELGQAAREVRASVERQTAYETRLAAQRSAAAFSGGEPPQARREAPGAELDEARNAQTVSARLFEGNLKGVAQSGHAMSAEQKQALQSGLDDVFADAPPQARSAGAPMLYSANAAAGQGMADSDLWDMISDQIGKIKDNYLGVYENVVGQYTDFYKAFSDILSQMANWIKPGGDGNKVKLNVDALKAALEKLKKDFSLGDNLDNKKAVLFPAQSKDGGIQGGSESDARKWAKEMGLPDAPPPGFSCVQKAADGNWVVVVDMTPIDTMIRDVGALGSGTELELDNAKFQAWQSGFKAQEENLKNTLQTLTQKYSNANSLFDNLVKVLSSTISSCLETAKSFLQILEHHHHHH”, the protein production entry is reported as “not failed”.

Turning to “MYHILFRRKSIVPAYNESTTIVSSIDSLLHLDYEAYEIIVVDDGSSDNTSDVLKEEFALMKISNTIDSIIATQTCKDVFQRQVGKVKLTLIVKENGGKGDALNMGINAANYDYFLCLDADSMLQVDSLSQISKSIQVDPTVIAVGGLVQVAQGVKIEQGKVASYRLPWRIIPCAQALEYDSSFLGARIFLDYLRANLIISGAFGLFKKDLVKAVGGYDTQTLGEDMELVMKLHFFCRNNNIPYRICYETDAVCWSQAPTNLGDLRKQRRRWYLGLYQCLKKYKSIFANYRFGAVGSISYIYYILFELLTPFIECFGIVIIFLSLLFNQLNIPFFISLVSLYIFYCVLITLSSFLHRIYSQQLVIGILDIVKVFYIAVFRYLILHPVLTFVKVASVIGYKNKKMVWGHITREKQMKDFETSVT”, the protein production entry is listed as “failed”.

In the case of “MYIPKYFKVTNAEEIWNFVQENSFGTVVTTEQGKPIATHLPLGFNKKDDHYYITGHFAYGNPQWRTFEACEDVLVMFQGPHAYISSSWYSRENVPTWNYQAVHMYGKASMLEKDELAEELTIMLEQKTPTQAFSVLWDKLSPKLLESELKGIVGFKIKVEDIQAAYKLSQNRNETDYMNVIEQLQNEENPNAKQMAELMEDKLKKQI”, the protein production result was “not failed”.

For the origin of these results see a protein production outcome set (Wang et al. 2014).
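Note: failed if final PepcDB status was selected cloned or expressed and not failed if soluble or beyond.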
